Results from the supplement of paper PMC7877785.
± gives the uncertainty stated by the source.

Assay: self-splicing fitness, log relative to wild type (ln ratio); higher = more splicing; Tetrahymena group I intron in knt gene, E. coli kanamycin selection, DiMSum; sequences stand for … in CUCUCU…GGAGGGAAAAGUUAUCAGGCAUGCACCUGGUAGCUAGUCUUUAAACCAAUAGAUUGCAUCGGUUUAAAAGGCAAGACCGUCAAAUUGCGGGAAAGGGGUCAACAGCCGUUCAGUACCAAGUCUCAGGGGAAACUUUGAGAUGGCCUUGCAAAGGGUAUGGUAAUAAGCUGACGGACAUGGUCCUAACCACGCAGCCAAGUCCUAAGUCAACAGAUCUUCUGUUGAUAUGGAUGCAGUUCACAGACUAAAUGUCGGUCGGGGAAGAUGUAUUCUUCUCAUAAGAUAUAGUCGGACCUCUCCUUAAUGGGAGCUAGCGGAUGAAGUGAUGCAACACUGGAGCCGCUGGGAACUAAUUUGUAUGCGAAAGUAUAUUGAUUAGUUUUGGAGUACUCGUGGUCG
Procedure, shortened: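 The eight P1ex-region nucleotides of an intron in the knt kanamycin-resistance gene on pET-22b(+) were all randomised and the library put into E. coli BL21(DE3). Six replicate transformations were grown overnight at 37°C or 30°C on LB agar with or without 25 μg/mL kanamycin, together with 100 μg/mL carbenicillin, 50 μM IPTG and 0.2% rhamnose. Colonies were pooled and amplicon-sequenced on an Illumina HiSeq 2500. Fitness from DiMSum is the error-weighted combination of wild-type-normalised replicate fold changes, kanamycin over none.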

Sequence: CCUAAGCAAUAUUACGAGCG
- self-splicing fitness (ln) (30 °C): -0.823 ± 0.097
- self-splicing fitness (ln) (37 °C): -0.11 ± 0.11

Sequence: AACGAGCAAUAUUACGAUCA
- self-splicing fitness (ln) (30 °C): -2.1 ± 0.21
- self-splicing fitness (ln) (37 °C): -1.41 ± 0.21

Sequence: CAAAAGCAAUAUUACGAUGC
- self-splicing fitness (ln) (30 °C): -3.49 ± 0.19
- self-splicing fitness (ln) (37 °C): -2.99 ± 0.32

Sequence: UGCAAGCAAUAUUACGCAGA
- self-splicing fitness (ln) (30 °C): -1.92 ± 0.16
- self-splicing fitness (ln) (37 °C): -1.75 ± 0.15

Sequence: AAACAGCAAUAUUACGAGUU
- self-splicing fitness (ln) (30 °C): -1.94 ± 0.068
- self-splicing fitness (ln) (37 °C): -0.482 ± 0.075

Sequence: GUGAAGCAAUAUUACGCACG
- self-splicing fitness (ln) (30 °C): -0.996 ± 0.12
- self-splicing fitness (ln) (37 °C): -0.777 ± 0.13

Sequence: UAACAGCAAUAUUACGAUAA
- self-splicing fitness (ln) (30 °C): -1.1 ± 0.076
- self-splicing fitness (ln) (37 °C): -0.209 ± 0.08

Sequence: GCUAAGCAAUAUUACGCUGU
- self-splicing fitness (ln) (37 °C): -3.18 ± 0.47

Sequence: AUACAGCAAUAUUACGAUAC
- self-splicing fitness (ln) (30 °C): -2.01 ± 0.075
- self-splicing fitness (ln) (37 °C): -1.08 ± 0.088

Sequence: AAAAAGCAAUAUUACGUCAA
- self-splicing fitness (ln) (30 °C): -1.8 ± 0.08
- self-splicing fitness (ln) (37 °C): -0.836 ± 0.073

Sequence: GGCCAGCAAUAUUACGAUGU
- self-splicing fitness (ln) (30 °C): -2.4 ± 0.092
- self-splicing fitness (ln) (37 °C): -1.92 ± 0.12

Sequence: UGUGAGCAAUAUUACGUGUG
- self-splicing fitness (ln) (30 °C): -2.7 ± 0.11
- self-splicing fitness (ln) (37 °C): -0.66 ± 0.13

Sequence: GAGUAGCAAUAUUACGAGUU
- self-splicing fitness (ln) (30 °C): -2.27 ± 0.095
- self-splicing fitness (ln) (37 °C): -0.98 ± 0.1

Sequence: UGCCAGCAAUAUUACGAAGC
- self-splicing fitness (ln) (30 °C): -3.74 ± 0.22
- self-splicing fitness (ln) (37 °C): -1.91 ± 0.18

Sequence: UAAAAGCAAUAUUACGAUUC
- self-splicing fitness (ln) (30 °C): -2.85 ± 0.17
- self-splicing fitness (ln) (37 °C): -1.02 ± 0.2

Sequence: CAACAGCAAUAUUACGCUUA
- self-splicing fitness (ln) (30 °C): -2.13 ± 0.12
- self-splicing fitness (ln) (37 °C): -0.653 ± 0.09

Sequence: CCCCAGCAAUAUUACGGGCU
- self-splicing fitness (ln) (30 °C): -3.75 ± 0.17
- self-splicing fitness (ln) (37 °C): -2.32 ± 0.17

Sequence: AUGUAGCAAUAUUACGGUUG
- self-splicing fitness (ln) (30 °C): -3.62 ± 0.2
- self-splicing fitness (ln) (37 °C): -1.99 ± 0.19

Sequence: AAGAAGCAAUAUUACGCCCA
- self-splicing fitness (ln) (30 °C): -0.613 ± 0.21
- self-splicing fitness (ln) (37 °C): -1.85 ± 0.44

Sequence: GACUAGCAAUAUUACGUGGC
- self-splicing fitness (ln) (30 °C): -3.56 ± 0.24
- self-splicing fitness (ln) (37 °C): -2.54 ± 0.21

Sequence: AUGUAGCAAUAUUACGAAAC
- self-splicing fitness (ln) (30 °C): -2.77 ± 0.24
- self-splicing fitness (ln) (37 °C): -1.76 ± 0.27

Sequence: UCGAAGCAAUAUUACGUAGC
- self-splicing fitness (ln) (37 °C): -2.17 ± 0.31

Sequence: UUAAAGCAAUAUUACGUGCC
- self-splicing fitness (ln) (30 °C): -0.9 ± 0.11
- self-splicing fitness (ln) (37 °C): -0.509 ± 0.16

Sequence: CGGGAGCAAUAUUACGUGGC
- self-splicing fitness (ln) (30 °C): -2.62 ± 0.21
- self-splicing fitness (ln) (37 °C): -2.43 ± 0.36

Sequence: GUUGAGCAAUAUUACGAGCA
- self-splicing fitness (ln) (30 °C): -2.68 ± 0.28
- self-splicing fitness (ln) (37 °C): -1.71 ± 0.32

Sequence: GCACAGCAAUAUUACGAAUC
- self-splicing fitness (ln) (30 °C): -1.15 ± 0.076
- self-splicing fitness (ln) (37 °C): -0.69 ± 0.079

Sequence: UGAAAGCAAUAUUACGCUCC
- self-splicing fitness (ln) (30 °C): -1.4 ± 0.12
- self-splicing fitness (ln) (37 °C): -0.227 ± 0.14

Sequence: ACGAAGCAAUAUUACGGUCU
- self-splicing fitness (ln) (30 °C): -0.57 ± 0.073
- self-splicing fitness (ln) (37 °C): -0.225 ± 0.097

Sequence: CUACAGCAAUAUUACGAAAG
- self-splicing fitness (ln) (30 °C): -1.42 ± 0.078
- self-splicing fitness (ln) (37 °C): -0.755 ± 0.094

Sequence: AGGGAGCAAUAUUACGUAGA
- self-splicing fitness (ln) (30 °C): -3.05 ± 0.19
- self-splicing fitness (ln) (37 °C): -2.22 ± 0.48

Sequence: GUUCAGCAAUAUUACGACAC
- self-splicing fitness (ln) (30 °C): -0.34 ± 0.15
- self-splicing fitness (ln) (37 °C): 0.897 ± 0.18

Sequence: GAAAAGCAAUAUUACGAGGA
- self-splicing fitness (ln) (30 °C): -2.03 ± 0.15
- self-splicing fitness (ln) (37 °C): -1.78 ± 0.16

Sequence: UUCCAGCAAUAUUACGAGUC
- self-splicing fitness (ln) (30 °C): -2.56 ± 0.13
- self-splicing fitness (ln) (37 °C): -1.13 ± 0.15

Sequence: CUCGAGCAAUAUUACGCGCU
- self-splicing fitness (ln) (30 °C): -3.66 ± 0.22
- self-splicing fitness (ln) (37 °C): -2.69 ± 0.23

Sequence: UGCUAGCAAUAUUACGUGGG
- self-splicing fitness (ln) (30 °C): -3.58 ± 0.27
- self-splicing fitness (ln) (37 °C): -3.28 ± 0.35

Sequence: UCUCAGCAAUAUUACGACUA
- self-splicing fitness (ln) (30 °C): -1.87 ± 0.12
- self-splicing fitness (ln) (37 °C): -1.37 ± 0.12

Sequence: CCACAGCAAUAUUACGCUGA
- self-splicing fitness (ln) (30 °C): -2.51 ± 0.12
- self-splicing fitness (ln) (37 °C): -3.16 ± 0.24

Sequence: ACUGAGCAAUAUUACGCAUU
- self-splicing fitness (ln) (30 °C): -2.71 ± 0.1
- self-splicing fitness (ln) (37 °C): -1.29 ± 0.11

Sequence: UCACAGCAAUAUUACGAUGU
- self-splicing fitness (ln) (30 °C): -4.15 ± 0.29
- self-splicing fitness (ln) (37 °C): -1.77 ± 0.17

Sequence: AGGCAGCAAUAUUACGCUAC
- self-splicing fitness (ln) (30 °C): -2.44 ± 0.23

Sequence: AAAGAGCAAUAUUACGAAGA
- self-splicing fitness (ln) (30 °C): -4.23 ± 0.46
- self-splicing fitness (ln) (37 °C): -1.64 ± 0.21

Sequence: GUCAAGCAAUAUUACGUGUA
- self-splicing fitness (ln) (30 °C): -1.8 ± 0.062
- self-splicing fitness (ln) (37 °C): -0.887 ± 0.072

Sequence: CAGAAGCAAUAUUACGUCAG
- self-splicing fitness (ln) (30 °C): -1.15 ± 0.056
- self-splicing fitness (ln) (37 °C): -0.204 ± 0.078

Sequence: GUCUAGCAAUAUUACGUUAA
- self-splicing fitness (ln) (30 °C): -0.894 ± 0.097
- self-splicing fitness (ln) (37 °C): -0.331 ± 0.094

Sequence: UACGAGCAAUAUUACGGGUC
- self-splicing fitness (ln) (30 °C): -3.23 ± 0.26
- self-splicing fitness (ln) (37 °C): -3.06 ± 0.43

Sequence: AUGCAGCAAUAUUACGCCUG
- self-splicing fitness (ln) (30 °C): -2.61 ± 0.35

Sequence: GUGGAGCAAUAUUACGCCGU
- self-splicing fitness (ln) (30 °C): 0.631 ± 0.42
- self-splicing fitness (ln) (37 °C): -1.15 ± 0.37

Sequence: CAUGAGCAAUAUUACGGGGC
- self-splicing fitness (ln) (30 °C): -4.13 ± 0.43
- self-splicing fitness (ln) (37 °C): -2.35 ± 0.34

Sequence: AGAUAGCAAUAUUACGCCUC
- self-splicing fitness (ln) (30 °C): -3.23 ± 0.26
- self-splicing fitness (ln) (37 °C): -2.26 ± 0.29
